From patent publication US20070224189A1 (published 2007)

Key:
[1] = target: extracellular region of human V158 FcγRIIIa fused with glutathione S-Transferase (GST) (human, UniProt P08637 17-208); test: AlphaScreen competition
[2] = target: human F158 FcγRIIIa as used in SPR (human, UniProt P08637 17-208); test: SPR
His-tagged V158 FcγRIIIa = His-tagged V158 FcγRIIIa (human, UniProt P08637 17-208); test: SPR, receptor on chip
Sequence of His-tagged V158 FcγRIIIa (P08637 17-208 F176V): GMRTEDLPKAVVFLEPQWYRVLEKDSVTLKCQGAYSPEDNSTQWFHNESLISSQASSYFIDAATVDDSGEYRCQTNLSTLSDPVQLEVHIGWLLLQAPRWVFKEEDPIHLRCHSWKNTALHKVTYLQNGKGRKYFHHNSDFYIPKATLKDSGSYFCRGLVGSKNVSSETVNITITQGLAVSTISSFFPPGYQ

Sequence of extracellular region of human V158 FcγRIIIa fused with glutathione S-Transferase (GST) (P08637 17-208 F176V): as above
Sequence of human F158 FcγRIIIa as used in SPR (P08637 17-208): as the sequence (P08637 17-208 F176V) above, with V160F counted along it

FcγRIIIa Fold [1] | Kd [2] | Kd (His-tagged V158 FcγRIIIa) | Binder
0.1 fold vs WT |  |  | F241E/F243Y/V262T/V264R/I332E alemtuzumab (antibody) heavy: DKTHTCPPCPAPELLGGPSVELYPPKPKDTLMISRTPEVTCTVRDVSHEDPEVKFNWYVDGVEVHNAKTKPREEQYNSTYRVVSVLTVLHQDWLNGKEYKCKVSNKALPAPEEKTISKAKGQPREPQVYTLPPSRDELTKNQVSLTCLVKGFYPSDIAVEWESNGQPENNYKTTPPVLDSDGSFFLYSKLTVDKSRWQQGNVFSCSVMHEALHNHYTQKSLSLSPGK
22.4 fold vs WT |  |  | S239D/A330Y/I332E/L234I trastuzumab (antibody) heavy: DKTHTCPPCPAPEILGGPDVFLFPPKPKDTLMISRTPEVTCVVVDVSHEDPEVKFNWYVDGVEVHNAKTKPREEQYNSTYRVVSVLTVLHQDWLNGKEYKCKVSNKALPYPEEKTISKAKGQPREPQVYTLPPSRDELTKNQVSLTCLVKGFYPSDIAVEWESNGQPENNYKTTPPVLDSDGSFFLYSKLTVDKSRWQQGNVFSCSVMHEALHNHYTQKSLSLSPGK
0.05 fold vs WT |  |  | F241Y/F243Y/V262T/V264T alemtuzumab (antibody) heavy: DKTHTCPPCPAPELLGGPSVYLYPPKPKDTLMISRTPEVTCTVTDVSHEDPEVKFNWYVDGVEVHNAKTKPREEQYNSTYRVVSVLTVLHQDWLNGKEYKCKVSNKALPAPIEKTISKAKGQPREPQVYTLPPSRDELTKNQVSLTCLVKGFYPSDIAVEWESNGQPENNYKTTPPVLDSDGSFFLYSKLTVDKSRWQQGNVFSCSVMHEALHNHYTQKSLSLSPGK
0.04 fold vs WT |  |  | F241W/F243W/V262A/V264A alemtuzumab (antibody) heavy: DKTHTCPPCPAPELLGGPSVWLWPPKPKDTLMISRTPEVTCAVADVSHEDPEVKFNWYVDGVEVHNAKTKPREEQYNSTYRVVSVLTVLHQDWLNGKEYKCKVSNKALPAPIEKTISKAKGQPREPQVYTLPPSRDELTKNQVSLTCLVKGFYPSDIAVEWESNGQPENNYKTTPPVLDSDGSFFLYSKLTVDKSRWQQGNVFSCSVMHEALHNHYTQKSLSLSPGK
17.7 fold vs WT |  |  | S239D/A330Y/I332E/V264T trastuzumab (antibody) heavy: DKTHTCPPCPAPELLGGPDVFLFPPKPKDTLMISRTPEVTCVVTDVSHEDPEVKFNWYVDGVEVHNAKTKPREEQYNSTYRVVSVLTVLHQDWLNGKEYKCKVSNKALPYPEEKTISKAKGQPREPQVYTLPPSRDELTKNQVSLTCLVKGFYPSDIAVEWESNGQPENNYKTTPPVLDSDGSFFLYSKLTVDKSRWQQGNVFSCSVMHEALHNHYTQKSLSLSPGK
59.1 fold vs WT |  |  | S239D/I332E/A330I trastuzumab (antibody) heavy: DKTHTCPPCPAPELLGGPDVFLFPPKPKDTLMISRTPEVTCVVVDVSHEDPEVKFNWYVDGVEVHNAKTKPREEQYNSTYRVVSVLTVLHQDWLNGKEYKCKVSNKALPIPEEKTISKAKGQPREPQVYTLPPSRDELTKNQVSLTCLVKGFYPSDIAVEWESNGQPENNYKTTPPVLDSDGSFFLYSKLTVDKSRWQQGNVFSCSVMHEALHNHYTQKSLSLSPGK
0.02 fold vs WT |  |  | S239D/D265Y/N297D/I332E alemtuzumab (antibody) heavy: DKTHTCPPCPAPELLGGPDVFLFPPKPKDTLMISRTPEVTCVVVYVSHEDPEVKFNWYVDGVEVHNAKTKPREEQYDSTYRVVSVLTVLHQDWLNGKEYKCKVSNKALPAPEEKTISKAKGQPREPQVYTLPPSRDELTKNQVSLTCLVKGFYPSDIAVEWESNGQPENNYKTTPPVLDSDGSFFLYSKLTVDKSRWQQGNVFSCSVMHEALHNHYTQKSLSLSPGK
0.02 fold vs WT |  |  | F243L/V262I/V264W alemtuzumab (antibody) heavy: DKTHTCPPCPAPELLGGPSVFLLPPKPKDTLMISRTPEVTCIVWDVSHEDPEVKFNWYVDGVEVHNAKTKPREEQYNSTYRVVSVLTVLHQDWLNGKEYKCKVSNKALPAPIEKTISKAKGQPREPQVYTLPPSRDELTKNQVSLTCLVKGFYPSDIAVEWESNGQPENNYKTTPPVLDSDGSFFLYSKLTVDKSRWQQGNVFSCSVMHEALHNHYTQKSLSLSPGK
1.87 fold vs WT |  |  | P230A/E233D/I332E trastuzumab (antibody) heavy: DKTHTCPPCAAPDLLGGPSVFLFPPKPKDTLMISRTPEVTCVVVDVSHEDPEVKFNWYVDGVEVHNAKTKPREEQYNSTYRVVSVLTVLHQDWLNGKEYKCKVSNKALPAPEEKTISKAKGQPREPQVYTLPPSRDELTKNQVSLTCLVKGFYPSDIAVEWESNGQPENNYKTTPPVLDSDGSFFLYSKLTVDKSRWQQGNVFSCSVMHEALHNHYTQKSLSLSPGK
0.09 fold vs WT |  |  | F241L/F243L/V262I/V264I alemtuzumab (antibody) heavy: DKTHTCPPCPAPELLGGPSVLLLPPKPKDTLMISRTPEVTCIVIDVSHEDPEVKFNWYVDGVEVHNAKTKPREEQYNSTYRVVSVLTVLHQDWLNGKEYKCKVSNKALPAPIEKTISKAKGQPREPQVYTLPPSRDELTKNQVSLTCLVKGFYPSDIAVEWESNGQPENNYKTTPPVLDSDGSFFLYSKLTVDKSRWQQGNVFSCSVMHEALHNHYTQKSLSLSPGK
28 fold vs WT |  |  | S239D/A330Y/I332E/V240I trastuzumab (antibody) heavy: DKTHTCPPCPAPELLGGPDIFLFPPKPKDTLMISRTPEVTCVVVDVSHEDPEVKFNWYVDGVEVHNAKTKPREEQYNSTYRVVSVLTVLHQDWLNGKEYKCKVSNKALPYPEEKTISKAKGQPREPQVYTLPPSRDELTKNQVSLTCLVKGFYPSDIAVEWESNGQPENNYKTTPPVLDSDGSFFLYSKLTVDKSRWQQGNVFSCSVMHEALHNHYTQKSLSLSPGK
7.04 fold vs WT |  |  | S239D/A330Y/I332E/L235D trastuzumab (antibody) heavy: DKTHTCPPCPAPELDGGPDVFLFPPKPKDTLMISRTPEVTCVVVDVSHEDPEVKFNWYVDGVEVHNAKTKPREEQYNSTYRVVSVLTVLHQDWLNGKEYKCKVSNKALPYPEEKTISKAKGQPREPQVYTLPPSRDELTKNQVSLTCLVKGFYPSDIAVEWESNGQPENNYKTTPPVLDSDGSFFLYSKLTVDKSRWQQGNVFSCSVMHEALHNHYTQKSLSLSPGK
64.1 fold vs WT |  |  | S239D/A330Y/I332E/K326E trastuzumab (antibody) heavy: DKTHTCPPCPAPELLGGPDVFLFPPKPKDTLMISRTPEVTCVVVDVSHEDPEVKFNWYVDGVEVHNAKTKPREEQYNSTYRVVSVLTVLHQDWLNGKEYKCKVSNEALPYPEEKTISKAKGQPREPQVYTLPPSRDELTKNQVSLTCLVKGFYPSDIAVEWESNGQPENNYKTTPPVLDSDGSFFLYSKLTVDKSRWQQGNVFSCSVMHEALHNHYTQKSLSLSPGK
 | 156 nM | 39 nM | S298A/E333A/K334A alemtuzumab (antibody) heavy: not shown
